# IntAct's records for PubMed 19937093
# B1: TNF receptor-associated factor 4 (Homo sapiens), Q9BUZ4 (parent)
# chain: MPGFDYKFLEKPKRRLLCPLCGKPMREPVQVSTCGHRFCDTCLQEFLSEGVFKCPEDQLPLDYAKIYPDPELEVQVLGLPIRCIHSEEGCRWSGPLRHLQGHLNTCSFNVIPCPNRCPMKLSRRDLPAHLQHDCPKRRLKCEFCGCDFSGEAYESHEGMCPQESVYCENKCGARMMRRLLAQHATSECPKRTQPCTYCTKEFVFDTIQSHQYQCPRLPVACPNQCGVGTVAREDLPGHLKDSCNTALVLCPFKDSGCKHRCPKLAMARHVEESVKPHLAMMCALVSRQRQELQELRRELEELSVGSDGVLIWKIGSYGRRLQEAKAKPNLECFSPAFYTHKYGYKLQVSAFLNGNGSGEGTHLSLYIRVLPGAFDNLLEWPFARRVTFSLLDQSDPGLAKPQHVTETFHPDPNWKNFQKPGTWRGSLDESSLGFGYPKFISHQDIRKRNYVRDDAVFIRAAVELPRKILS
# Variants of: B1
# Details: with SMURF1, Q9HCE7-2
# Chain of SMURF1, Q9HCE7-2 (Q9HCE7 other isoform, or with tags, fused parts or gaps): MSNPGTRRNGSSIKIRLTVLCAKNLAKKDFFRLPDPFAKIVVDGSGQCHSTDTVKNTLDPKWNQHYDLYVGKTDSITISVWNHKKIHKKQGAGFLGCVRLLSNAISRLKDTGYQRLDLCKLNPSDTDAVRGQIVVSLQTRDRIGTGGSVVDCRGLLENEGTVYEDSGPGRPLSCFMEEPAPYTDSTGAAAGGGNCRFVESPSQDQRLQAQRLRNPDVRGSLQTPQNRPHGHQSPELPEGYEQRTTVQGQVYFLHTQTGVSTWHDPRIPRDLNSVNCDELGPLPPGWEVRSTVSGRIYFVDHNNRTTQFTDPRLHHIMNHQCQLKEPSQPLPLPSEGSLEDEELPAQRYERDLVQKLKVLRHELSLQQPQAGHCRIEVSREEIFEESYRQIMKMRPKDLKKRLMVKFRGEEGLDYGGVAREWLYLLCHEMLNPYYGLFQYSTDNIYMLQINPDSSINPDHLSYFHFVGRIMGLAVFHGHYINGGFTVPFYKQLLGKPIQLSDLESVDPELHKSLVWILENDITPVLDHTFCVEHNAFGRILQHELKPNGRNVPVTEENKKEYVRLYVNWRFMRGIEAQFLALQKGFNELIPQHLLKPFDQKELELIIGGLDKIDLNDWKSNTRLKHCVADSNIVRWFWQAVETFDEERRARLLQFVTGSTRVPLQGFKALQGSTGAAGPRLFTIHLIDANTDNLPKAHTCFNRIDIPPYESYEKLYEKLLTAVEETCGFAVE
row,Variant,effect of a mutation on the interaction
1,P60A;L61A;D62A;Y63A;P194A;C195A;T196A;Y197A;P335A;F337A;Y338A,disrupting interaction
